# Results reported in ChEMBL document CHEMBL1126199, “(R)-(-)- and (S)-(+)-adenallene: synthesis, absolute configuration, enantioselectivity of antiretroviral effect, and enzymic deamination” (J Med Chem, 1992).
# “And” between values parts separate entries of the source, which are not always exact repeats. Identical values can stand only once.
# Substrate: Nc1ncnc2c1ncn2C=C=CCO
# Assay: Vmax by adenosine deaminase
protein,measurement,value
"Adenosine deaminase (Bos taurus), P56658 (protein) MAQTPAFNKPKVELHVHLDGAIKPETILYYGRKRGIALPADTPEELQNIIGMDKPLSLPEFLAKFDYYMPAIAGCREAVKRIAYEFVEMKAKDGVVYVEVRYSPHLLANSKVEPIPWNQAEGDLTPDEVVSLVNQGLQEGERDFGVKVRSILCCMRHQPSWSSEVVELCKKYREQTVVAIDLAGDETIEGSSLFPGHVKAYAEAVKSGVHRTVHAGEVGSANVVKEAVDTLKTERLGHGYHTLEDATLYNRLRQENMHFEVCPWSSYLTGAWKPDTEHPVVRFKNDQVNYSLNTDDPLIFKSTLDTDYQMTKNEMGFTEEEFKRLNINAAKSSFLPEDEKKELLDLLYKAYGMPSPASAEQCL",Vmax,0.41 µM/min and 0.52 µM/min
